Assay results from FireProtDB (doi:10.1021/bi034721x).
Where “and” joins values, the source holds several entries; their conditions need not be identical. Equal values may be shown once.

B1: Parvalbumin alpha, P02625 (parent)
chain: MSMTDLLSAEDIKKAIGAFTAADSFDHKKFFQMVGLKKKSADDVKKVFHILDKDKSGFIEEDELGSILKGFSSDARDLSAKETKTLMAAGDKDGDGKIGVEEFSTLVAES

Variants of: B1
Conditions: Rattus norvegicus, pH 7.4, Thermal, DSC, sodium phosphate 10 mM, NaCl 0.20 M, structure 1RTP, whole UniProt chain shown

Variant | ddG of mutation (higher = less stable) (44.2 °C) [kcal/mol] | heat capacity change of unfolding (44.2 °C) [kcal/mol/K] | ddG of mutation (higher = less stable) (45.8 °C) [kcal/mol] | heat capacity change of unfolding (45.8 °C) [kcal/mol/K] | unfolding enthalpy (calorimetric) | Tm [°C] | change of melting temperature, mutant - wild type (higher = more stable) [°C]
A22P | -0.95 | 1.4 | 1.92 | 1.4 | 52 kcal/mol and 63 kcal/mol |  | 
K81S |  |  | 0.29 | 1.4 | 71 kcal/mol | 44.5 | -1.3
A22P H27P |  |  | 0.5 | 1.4 | 62 kcal/mol | 43.6 | -2.2
H27P |  |  | -1.25 | 1.4 | 80 kcal/mol | 51.4 | 5.6
A22P K81S |  |  | -0.45 | 1.4 | 75 kcal/mol | 47.8 | 2
